Reference: US20230272055A1 (Incyte, published 2023)
Where a chain is given by its changes, count along the chain named.

Key:
[1] = target: T1, human Type 1 mutCALR (52 bp deletion) (human); experiment: flow cytometry on BaF3 cells stably expressing human MPL and human mutCALR Type 1, goat anti-human R-PE secondary, GMFI
T1 construct: also called human mutCALR Type 1; mutant CALR
T1 chain: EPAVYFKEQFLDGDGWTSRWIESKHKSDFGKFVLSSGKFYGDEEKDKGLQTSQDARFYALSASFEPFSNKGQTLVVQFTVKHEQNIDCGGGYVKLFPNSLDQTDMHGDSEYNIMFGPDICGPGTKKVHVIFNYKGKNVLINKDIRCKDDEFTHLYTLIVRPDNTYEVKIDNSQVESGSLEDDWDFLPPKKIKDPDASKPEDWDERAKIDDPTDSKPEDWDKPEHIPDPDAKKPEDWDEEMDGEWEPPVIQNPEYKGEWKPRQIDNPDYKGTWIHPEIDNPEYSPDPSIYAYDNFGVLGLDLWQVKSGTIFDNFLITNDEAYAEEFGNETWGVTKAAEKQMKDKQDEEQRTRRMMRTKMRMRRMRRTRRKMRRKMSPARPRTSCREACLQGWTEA
Protocol: Approximately 200,000 cells/well were added to 96-well plates and stained with the indicated concentration of antibodies for 30 minutes on ice. Cells were then washed and stained with goat anti-human secondary conjugated to R-phycoerythrin (R-PE) (Jackson Immuno Research Laboratories) for 30 minutes on ice. The cells were then washed again and analyzed by flow cytometry.

Human Type 1 mutCALR [2] = target: T2, Human Type 1 mutCALR (human); experiment: cell-based or functional assay
T2 chain: T1 chain

Human Type 1 mutCALR [3] = target: T2, Human Type 1 mutCALR; experiment: cell-based or functional assay
Human Type 1 mutCALR [4] = target: T2, Human Type 1 mutCALR; experiment: cell-based or functional assay
MBP protein = MBP protein (UniProt P0AEX9 27-392 = MBP); experiment: SPR (Biacore 8K), antibody captured on anti-human IgG (Fc), MBP injected
[5] = target: T3, recombinant Flag tag_GFP_tev_hmutCALR Type 1 (human); experiment: HTRF competition: preformed complex of 5 nM Flag-GFP-mutCALR Type 1 and 80 nM His-MPL, anti-FLAG-Europium / anti-6xHis-APC, 90 min reading; blocked ligand: His-MPL
T3 construct: also called FLAG-GFP-tev-mutCALR
Protocol: HTRF detection solution (2 nM anti-FLAG-Europium, and 100 nM anti-6×His-SureLight® APC) was then added and the plate was read on BMG PHERAstar FSX using kinetic HTRF protocol, obtaining readings every 15 minutes for 120 minutes total. […] Percent-of-control values were obtained by dividing the background-subtracted HTRF Ratios for each test well by the buffer control well in the same plate row.

B1: AB3: anti-mutCALR antibody including the BJ095 VH region and the BJ097 VL region from WO2019178362 fused to human constant regions (antibody, human IgG1, kappa, V domains shown)
VH: QVQLVQSGAEVKKPGASVKVSCKASGYSFTGYYIHWVRQAPGQGLEWIGYISAYNGASSYNQKFKGRATFTVDTSISTAYMELSRLRSDDTAVYYCASSMDYWGQGTLVTVSS
VL: DVVMTQSPLSLPVTLGQPASISCKSSQSLLDSDGKTYLNWLQQRPGQSPKRLIYLVSKLDSGVPDRFSGSGSGTDFTLKISRVEAEDVGVYHCWQGTHFPYTFGQGTKLIEKR
- binding result [1]: binds

B2: anti-mutCALR antibody clone 53 (antibody, human IgG1, lambda, V domains shown)
VH: QVQLVQSGAEVKKPGASVKVSCKVSGYTLTELSMHWVRQAPGKGLEWMGGFDPEDGETIYAQKFQGRVTMTEDTSTDTAYMELSSLRSEDTAVYYCATDIQGLAEFDYWGQGTLVTVSS
VL: QSALTQPRSVSGSPGQSVTISCTGTNTDVGAYIDVSWYQQHPGKAPKLIIYDVSKWPSGVPDRFSGSKSGNTASLTISGLQAEDEADYYCCSYAGNHSFSFGGGTKVTVLG
- IC50 of inhibition of cell proliferation (Ba/F3 cells with MPL and mutCALR Type 1) (Human Type 1 mutCALR [2]): 0.399 µg/mL
- IC50 of inhibition of cell proliferation (BaF3 cells expressing MPL/mutCALR Type 1) (Human Type 1 mutCALR [3]): 9.5 µg/mL
- Log IC50 of inhibition of cell proliferation, antibody + ruxolitinib (Ba/F3-TPOR/mutCALR type 1 cells) (Human Type 1 mutCALR [4]): -0.424 Log IC50 (µg/mL)
- Log IC50 of inhibition of cell proliferation, antibody alone (Ba/F3-TPOR/mutCALR type 1 cells) (Human Type 1 mutCALR [4]): -0.173 Log IC50 (µg/mL)

B3: anti-mutCALR antibody clone 52 (antibody, human IgG1, kappa, V domains shown)
VH: EVQLVQSGAEVKKPGASVKVSCKVSGYTLTELSMHWVRQAPGKGLEWMGLVDPEDGETIYAEKFQGRVTITADTSTDTAYMELSSPRSEDTAVYYCATTIGDDYFDYWGQGTLVTVSS
VL: not shown
- IC50 of inhibition of cell proliferation (Ba/F3 cells with MPL and mutCALR Type 1) (Human Type 1 mutCALR [2]): 0.0337 µg/mL
- Log IC50 of inhibition of cell proliferation, antibody + ruxolitinib (Ba/F3-TPOR/mutCALR type 1 cells) (Human Type 1 mutCALR [4]): -0.709 Log IC50 (µg/mL)

B4: AB2: anti-mutCALR antibody including VH and VL regions of antibody B3 from WO2020175689 fused to human constant regions (antibody, human IgG1, kappa, V domains shown)
VH: QVQLQQSGAELVKPGSSVKISCKASGYTFTRNFIHWIKQQPGNGLEWIGWIFPGDGDTEYNQKFNGKATLTADKSSSTAYMQLSSLTSEDSAVYFCARGNYNYEYFDYWGQGVMVTVSS
VL: DIQMTQSPASLSASLGETVSIECLASEDIYSYLAWYQQKPGKSPQLLIFAANRLQDGVPSRFSGSGSGTQFSLKISGMQPEDEGDYFCLQGSKFPYTFGPGTKLELNR
- binding result [1]: binds

B5: anti-mutCALR antibody clone 36 (antibody, human IgG1, lambda, V domains shown)
VH: QVQLVQSGAEVKKPGATVKISCKVSGYSFTDYFIHWVQQAPGKGLAWVGLVDPEDGETIYAEKFQGRVTITADTSTDTAYMELSSLRSEDTAVYYCATPGGILTDPDAFDIWGQGTMVTVSS
VL: QSALTQPRSVSGSPGQSVTISCAGTGSDVGGYNYVSWYQHHPGKAPKLMIYDVNKRPSGVPDRFSGSKSGNTASLTISGLQAEDEADYYCSSYTSSSTFYVFGTGTKVTVLG
- IC50 of inhibition of cell proliferation (Ba/F3 cells with MPL and mutCALR Type 1) (Human Type 1 mutCALR [2]): 0.0905 µg/mL
- IC50 of inhibition of cell proliferation (BaF3 cells expressing MPL/mutCALR Type 1) (Human Type 1 mutCALR [3]): 0.98 µg/mL
- Log IC50 of inhibition of cell proliferation, antibody + ruxolitinib (Ba/F3-TPOR/mutCALR type 1 cells); extrapolated from fitted curve (Human Type 1 mutCALR [4]): -3.88 Log IC50 (µg/mL)

B6: anti-mutCALR antibody clone 37 (antibody, human IgG1, lambda, V domains shown)
VH: B5 VH
VL: B5 VL with R8A, V18I, A23T, G26S, H40Q, N54S, K55N, P61S, D62N
- IC50 of inhibition of cell proliferation (BaF3 cells expressing MPL/mutCALR Type 1) (Human Type 1 mutCALR [3]): 0.201 µg/mL

B7: anti-mutCALR antibody clone 35 (antibody, human IgG1, lambda, V domains shown)
VH: B5 VH with K63R
VL: QSALTQPASVSGSPGQSITISCTGTSSDVGGYNYVSWYQQHPGKAPKLMIYEVSNRPSGVSNRFSGSKSGNTASLTISGLQAEDEADYYCSSYTSSSTPYVFGTGTKVTVLG
- IC50 of inhibition of cell proliferation (Ba/F3 cells with MPL and mutCALR Type 1) (Human Type 1 mutCALR [2]): 0.088 µg/mL
- IC50 of inhibition of cell proliferation (BaF3 cells expressing MPL/mutCALR Type 1) (Human Type 1 mutCALR [3]): 2.18 µg/mL

B8: anti-mutCALR antibody clone 32 (antibody, human IgG1, lambda, V domains shown)
VH: B5 VH
VL: B7 VL
notes: also called anti-mutCALR antibody 32
- binding result (MBP protein): no binding (tested: 250 nM)
- binding result [5]: binds

B9: anti-mutCALR antibody clone 40 (antibody, human IgG1, lambda, V domains shown)
VH: EVQLVQSGAEVKKPGASVKVSCKVSGYTLTESSMHWVRQAPGKGLEWMGLVDPEDGETIYAQKFQGRVTMTEDTSTDTAYMELSSLRSEDTAVYYCAREEWSGDGDDAFDIWGQGTMVTVSS
VL: QSVLTQPPSVSAAPGQKVTISCSGSSSNIGSYSVSWYQQLPGTAPKLLIYDNNKRPSGIPDRFSGSNSGTSATLGITGLQTGDEADYYCGTWDSSLSAWVFGGGTKLTVLG
- IC50 of inhibition of cell proliferation (Ba/F3 cells with MPL and mutCALR Type 1) (Human Type 1 mutCALR [2]): 0.0384 µg/mL
- Log IC50 of inhibition of cell proliferation, antibody + ruxolitinib (Ba/F3-TPOR/mutCALR type 1 cells); extrapolated from fitted curve (Human Type 1 mutCALR [4]): -1.59 Log IC50 (µg/mL)

B10: anti-mutCALR antibody clone 41 (antibody, human IgG1, lambda, V domains shown)
VH: B9 VH with S32L
VL: B9 VL
- IC50 of inhibition of cell proliferation (Ba/F3 cells with MPL and mutCALR Type 1) (Human Type 1 mutCALR [2]): 0.342 µg/mL
- IC50 of inhibition of cell proliferation (BaF3 cells expressing MPL/mutCALR Type 1) (Human Type 1 mutCALR [3]): 3.98 µg/mL
